# Molecular target: DENV2 (S-16803) intact virus, E glycoprotein on the virion (dengue virus serotype 2 (S-16803))
# Experiment: cell-based or functional assay
substance,measurement,value
human monoclonal antibody 2D22,Neut50 value,< 0.2 µg/mL

# From US9821050
